{"source": "paper PMC5103873", "key": {"[1]": {"target": "arrestin3", "assay": "single-cell FRET, PTH1R–eYFP / arrestin3–CFP"}, "[2]": {"target": "arrestin3", "assay": "BRET, arrestin3–Rluc / PTH1R–eYFP", "conditions": "reference: wild type"}, "[3]": {"target": "arrestin3", "assay": "dual-color FRAP of arrestin3–CFP", "conditions": "reference: wild type"}, "[4]": {"target": "PTH1R PD3 mutant (mutations of clusters 1 and 2 combined), HA- and eYFP-tagged (human) (UniProt Q03431)"}, "[5]": {"target": "parathyroid hormone receptor 1 (PTH1R) wild type, N-terminally HA-tagged, C-terminally eYFP-labelled (human) (UniProt Q03431)"}, "[6]": {"conditions": "sites S489,S491,S492,S493,S495,S501,T503,S504,T506"}}, "data": [{"substance": "PTH1R (parathyroid hormone receptor 1) (from UniProt Q03431) 100 nM PTH(1–34)", "values": [{"measurement": "other: increase in FRET", "setting": "[1]; reference: before agonist", "result": 24.8, "unit": "%"}]}, {"substance": "PTH1R (parathyroid hormone receptor 1) (from UniProt Q03431) PD1 (cluster 1 S/T to Ala)", "values": [{"measurement": "percent of reference (% of WT maximum BRET)", "setting": "[2]; sites S489,S491,S492,S493,S495", "result": 80.8}, {"measurement": "other: arrestin3 recovery after photobleaching", "setting": "[3]; sites S489,S491,S492,S493,S495", "result": "same; reference 19.07 ± 0.68–23.94 ± 0.86"}, {"measurement": "other: reduction of FRET signal vs WT", "setting": "[1]; reference: wild type, sites S489,S491,S492,S493,S495", "result": 42.1, "unit": "%"}]}, {"substance": "PTH1R (parathyroid hormone receptor 1) (from UniProt Q03431) PD2 (cluster 2 S/T to Ala)", "values": [{"measurement": "percent of reference (% of WT maximum BRET)", "setting": "[2]; sites S501,T503,S504,T506", "result": 66.9}, {"measurement": "other: arrestin3 recovery after photobleaching", "setting": "[3]; sites S501,T503,S504,T506", "result": "weaker; reference 19.07 ± 0.68–23.94 ± 0.86"}]}, {"substance": "PTH1R (parathyroid hormone receptor 1) (from UniProt Q03431) PD3 (clusters 1 and 2 S/T to Ala)", "values": [{"measurement": "percent of reference (% of WT maximum BRET)", "setting": "[2]; [6]", "result": 46.6}, {"measurement": "other: arrestin3 recovery after photobleaching", "setting": "[3]; [6]", "result": "weaker; reference 19.07 ± 0.68–23.94 ± 0.86"}]}, {"substance": "PTH1R (parathyroid hormone receptor 1) (from UniProt Q03431) T503A, S504A", "values": [{"measurement": "other: arrestin3 recovery after photobleaching", "setting": "[3]; sites T503,S504", "result": "weaker; reference 19.07 ± 0.68–23.94 ± 0.86"}, {"measurement": "other: agonist-induced FRET change", "setting": "[1]; reference: wild type, sites T503,S504", "result": "weaker; reference 24.8 ± 12.7"}]}, {"substance": "PTH(1–34) (peptide)", "values": [{"measurement": "pEC50 of PTH(1–34) for cAMP accumulation (HTRF) in HEK293 cells transfected with HA–PTH1R PD3 (without YFP), 15 min, 100 µM IBMX", "setting": "[4]", "result": 11.3}, {"measurement": "pEC50 of PTH(1–34) for cAMP accumulation (HTRF) in HEK293 cells transfected with HA–PTH1R WT (without YFP), 15 min, 100 µM IBMX", "setting": "[5]", "result": 10.9}]}]}
